Consider eleven molecules from patent publication US20150328292A1, “CASPASE POLYPEPTIDES HAVING MODIFIED ACTIVITY AND USES THEREOF” (BELLICUM PHARMACEUTICALS, INC., priority 2014, published 2015).

In test [1] the test system is F-Casp9M.I.GFPhigh-transduced T cells. The test can be described thus: annexin-V/7-AAD staining of CID-treated transduced CTLs. Format: cell-based, human. Particulars: 100 μM for 1 hour prior to adding CID. As for the experimental part: CID (AP20187; ARIAD Pharmaceuticals) at indicated concentrations was added to transfected 293T cells or transduced CTLs. Adherent and nonadherent cells were harvested and washed with annexin binding buffer (BD Pharmingen, San Jose, Calif.). Cells were stained with annexin-V and 7-amino-actinomycin D (7-AAD) for 15 minutes according to the manufacturer's instructions (BD Pharmingen). Within 1 hour after staining, cells were analyzed by flow cytometry using CellQuest software (Becton Dickinson).

The subject of test [2] is HEK293T/16 cells. The test can be described thus: SEAP reporter-based surrogate killing assay (basal activity and AP1903 IC50). Format: cell-based, human. The settings on record: for relative SEAP activity Units (basal activity): no AP1903, higher SEAP = lower basal activity; for basal activity / basal signaling (in words): AP1903-independent SEAP activity, vs wild type. The method, then: FIG. 45 provides a schematic of an analysis of SEAP assays. […] of the mixture was seeded onto each well of a 96-well plate. […] For the assay, 4-methylumbelliferyl phosphate substrate was hydrolyzed by SEAP to 4-methylumbelliferon, a metabolite that can be excited with 364 nm and detected with an emission filter of 448 nm. Since SEAP is used as a marker for cell viability, reduced SEAP reading corresponds with increased icaspase-9 activities.
Early passage HEK293T/16 cells (ATCC, Manassas, Va.) were maintained in IMDM, GlutaMAX™ (Life Technologies, Carlsbad, Calif.) supplemented with 10% FBS, 100 U/mL penicillin, and 100 […] until transfection in a humidified, 37° C., 5% CO2/95% air atmosphere. Cells in logarithmic-phase growth were transiently transfected with 800 ng to 2 μg of expression plasmid encoding iCasp9 mutants and 500 ng of an expression plasmid encoding SRα promoter driven SEAP per million cells in 15-mL conical tubes. […] GeneJammer® Transfection Reagent at a ratio of 3 μl per ug of plasmid DNA was used to transiently transfect HEK293T/16 cells in the absence of antibiotics. 100 μl or 2 mL of the transfection mixture was added to each well in 96-well or 6-well plate, respectively.
Briefly, after 65° C. heat denaturation for 45 minutes to reduce background caused by endogenous (and serum-derived) alkaline phosphatases that are sensitive to heat, 5 μl of supernatants was added to 95 μl of PBS and added to 100 μl of substrate buffer, containing 1 μl of 100 mM 4-methylumbelliferyl phosphate (4-MUP; Sigma, St. Louis, Mo.) re-suspended in 2 M diethanolamine. Hydrolysis of 4-MUP by SEAP produces a fluorescent […] with excitation/emission (355/460 nm), which can be easily measured. Assays were performed in black opaque 96-well plates to minimize fluorescence leakage between wells (FIG. 45).

The next test deals with Activated T cells. The experiment in a line: Control of T cell proliferation in vitro over 10 days with AP1903. Type of test: cell-based, human. Particulars: AP1903 on days 0 and 4, 10 days.
The subject of the next test is PG13 packaging cells. Format: cell-based.
The subject of test [3] is HEK293T/16 cells. The test can be described thus: Western blot of protein expression and proteolysis. Format: cell-based, human. As for the experimental part:
The lysates were collected and lysed on ice for 30 min. After pelleting cell debris, protein concentrations from overlying supernatants were measured in 96-well plates with BCA™ Protein Assay as recommended by the manufacturer. 30 μg of proteins were boiled in Laemmli sample buffer (Bio-Rad, Hercules, Calif.) with 2.5% 2-mercaptoethanol for 5 min at 95° C. before being separated by Criterion TGX 10% Tris/glylcine protein gel. Membranes were probed with 1/1000 rabbit anti-human caspase-9 polyclonal antibody followed by 1/10,000 HRP-conjugated goat anti-rabbit IgG F(ab′)2 secondary antibody (Bio-Rad). Protein bands were detected using Supersignal West Femto chemiluminescent substrate. To ensure equivalent sample loading, blots were stripped at 65° C. for 1 hour with Restore PLUS Western Blot Stripping Buffer before labeling with 1/10,000 rabbit anti-actin polyclonal antibody. Unless otherwise stated, all the reagents were purchased from Thermo Scientific.
On the technique in general: In western blotting, separated proteins are transferred to a membrane and probed.

For the next test, the system named is human CD3+CD19+ T cells. The test can be described thus: AP1903 dose-dependent elimination in vivo of transduced T cells in NSG mice. Further details: species or system mouse. The settings on record: NSG mice, AP1903 0-5 mg/kg i.p., spleen. As for the experimental part: T cells were transduced with SFG-iCasp9-2A-ΔCD19 retrovirus and injected i.v. into immune deficient mice (NSG). […] After an additional 24 hours, mice were sacrificed and lymphocytes from the spleen (FIG. 61A) and peripheral blood (FIG. 61B) were isolated and analyzed by flow cytometry for the frequency of human CD3+CD19+ T cells.
T cells were transduced with SFG-iCasp9-D330E-2A-ΔCD19 retrovirus and injected i.v. into immune deficient mice (NSG). […] After an additional 24 hours, mice were sacrificed and lymphocytes from the spleen (A) were isolated and analyzed by flow cytometry for the frequency of human CD3+CD19+ T cells.

Positions count from the first letter of the chain named. Names may count otherwise. “Also recorded” adds a separate entry of the source. Where a SMILES comes first, the peptide text is derived from it. The star is where a group is joined. Cbz = O=C(OCc1ccccc1)*; CH2F = FC*

As for `COC(=O)C[C@H](NC(=O)[C@H](C)NC(=O)[C@@H](NC(=O)OCc1ccccc1)C(C)C)C(=O)CF` [zVAD-fmk] (Cbz-Val-Ala-Asp(OMe)-CH2F), the “effect on CID-induced apoptosis” value in test [1] is reported as “inhibited”.

B1: D330A: ΔCasp9 (res. 135-416) D330A, SEQ ID NO: 24 (protein)
chain: GFGDVGALESLRGNADLAYILSMEPCGHCLIINNVNFCRESGLRTRTGSNIDCEKLRRRFSSLHFMVEVKGDLTAKKMVLALLELARQDHGALDCCVVVILSHGCQASHLQFPGAVYGTDGCPVSVEKIVNIFNGTSCPSLGGKPKLFFIQACGGEQKDHGFEVASTSPEDESPGSNPEPDATPFQEGLRTFDQLAAISSLPTPSDIFVSYSTFPGFVSWRDPKSGSWYVETLDDIFEQWAHSEDLQSLLLRVANAVSVKGIYKQMPGCFNFLRKKLFFKTS
Turning to B1, in the test with HEK293T/16 cells [2] (1 μg iCasp9 per million cells), the “relative SEAP activity Units (basal activity)” value (from here on “relative SEAP activity Units”) came to 148928. The “relative SEAP activity Units” value in the test with HEK293T/16 cells [2] (2 μg iCasp9 per million cells) came out at 136863. Further, the “basal activity / basal signaling (in words)” value with HEK293T/16 cells [2] is listed as “low to undetectable basal activity; also recorded: lowered basal activity, but not as low as in N405Q; also recorded: less basal activity than wild type caspase-9; also recorded: lower basal activity; also recorded: lower basal signaling compared to the wild-type caspase-9; also recorded: statistically lower basal signaling”. For the same molecule, the “T cell proliferation and survival” value with Activated T cells is “halted T cell proliferation”. Also, in the test with PG13 packaging cells, the “CD19 mean fluorescence intensity (MFI) of transduced PG13 cells” value (“CD19 mean fluorescence intensity (MFI)” for short) is on record as “enhanced CD19 mean fluorescence intensity” and the viral titers result is reported as “higher viral titers”.

B2: N405Q: ΔCasp9 (res. 135-416) N405Q, SEQ ID NO: 26 (protein)
chain: B1 chain with A196D, N271Q
B2: the results for the “relative SEAP activity Units” value with HEK293T/16 cells [2] (1 μg iCasp9 per million cells) and with HEK293T/16 cells [2] (2 μg iCasp9 per million cells) were 179081 and 175529, respectively. Further, the “T cell proliferation and survival” value in the test on Activated T cells was “indistinguishable from wild type caspase-9 polypeptide or D330A”. In the test on PG13 packaging cells, the “CD19 mean fluorescence intensity (MFI)” value is listed as “higher levels of CD19; also recorded: enhanced CD19 mean fluorescence intensity; also recorded: higher CD19 MFIs than the other cohorts”. For the same molecule, the viral titers entry in the test with PG13 packaging cells is given as “higher viral titers”. Also, in the test on HEK293T/16 cells [3], the “cleavage in response to AP1903” value is “impaired cleavage”.

B3: D330A-N405Q: ΔCasp9 (res. 135-416) D330A N405Q, SEQ ID NO: 28 (protein)
chain: B1 chain with N271Q
Consider B3, for which the “relative SEAP activity Units” value with HEK293T/16 cells [2] (1 μg iCasp9 per million cells) turned out to be 205772; with HEK293T/16 cells [2] (2 μg iCasp9 per million cells), 174366. Also, the “basal activity / basal signaling (in words)” value in the test with HEK293T/16 cells [2] is “intermediate; also recorded: lower basal signaling compared to the wild-type caspase-9”; in the test on HEK293T/16 cells [2] (listed as D330A N405Q) it was “low to undetectable basal activity”. Moreover, in the test on HEK293T/16 cells [3], the “cleavage in response to AP1903” value is “impaired cleavage”.

B4: D330E: chimeric modified caspase-9 polypeptide variant (protein)
chain: VDGFGDVGALESLRGNADLAYILSMEPCGHCLIINNVNFCRESGLRTRTGSNIDCEKLRRRFSSLHFMVEVKGDLTAKKMVLALLELARQDHGALDCCVVVILSHGCQASHLQFPGAVYGTDGCPVSVEKIVNIFNGTSCPSLGGKPKLFFIQACGGEQKDHGFEVASTSPEDESPGSNPEPDATPFQEGLRTFDQLEAISSLPTPSDIFVSYSTFPGFVSWRDPKSGSWYVETLDDIFEQWAHSEDLQSLLLRVANAVSVKGIYKQMPGCFNFLRKKLFFKTSASRA
Consider B4, for which the “in vivo cytotoxicity profile in response to AP1903” value in the test on human CD3+CD19+ T cells was “titratable in vivo”. The “basal activity / basal signaling (in words)” value with HEK293T/16 cells [2] is “less basal activity than wild type caspase-9; also recorded: statistically lower basal signaling”. For the same molecule, in the test on PG13 packaging cells, the “CD19 mean fluorescence intensity (MFI)” value was “enhanced CD19 mean fluorescence intensity” and the viral titers entry was “higher viral titers”.

B5: F404Y: chimeric modified caspase-9 polypeptide variant (protein)
chain: B4 chain with E198D, F272Y
As to B5, the “basal activity / basal signaling (in words)” value in the test with HEK293T/16 cells [2] is recorded as “lower basal signaling than WT”. The “T cell proliferation and survival” value in the test on Activated T cells is “indistinguishable from wild type caspase-9 polypeptide or D330A”.

B6: F404W: chimeric modified caspase-9 polypeptide variant (protein)
chain: B4 chain with E198D, F272W
As for B6, in the test with HEK293T/16 cells [2], the “basal activity / basal signaling (in words)” value was “lower basal signaling than WT”.

B7: F406T: chimeric modified caspase-9 polypeptide variant (protein)
chain: B4 chain with E198D, F274T
As for B7, in the test with HEK293T/16 cells [2], the “basal activity / basal signaling (in words)” value was “lower basal signaling than WT”.

B8: S183A: chimeric modified caspase-9 polypeptide variant (protein)
chain: B4 chain with S51A, E198D
B8: the “basal activity / basal signaling (in words)” value in the test on HEK293T/16 cells [2] is listed as “lower basal activity”.

B9: D330S: chimeric modified caspase-9 polypeptide variant (protein)
chain: B4 chain with E198S
For the molecule B9, the “basal activity / basal signaling (in words)” value in the test with HEK293T/16 cells [2] was “less basal activity than wild type caspase-9; also recorded: statistically lower basal signaling”.

B10: S196D: chimeric modified caspase-9 polypeptide variant (protein)
chain: B4 chain with S64D, E198D
Turning to B10, in the test with HEK293T/16 cells [2], the “basal activity / basal signaling (in words)” value is “lower basal activity”.
